Experimental data published in doi:10.1101/2022.10.17.512631 (bioRxiv, 2022).

Target: METTL3 (human, UniProt Q86U44 1-580)
Assay: SPR

METTL3, sequence (Q86U44 whole entry): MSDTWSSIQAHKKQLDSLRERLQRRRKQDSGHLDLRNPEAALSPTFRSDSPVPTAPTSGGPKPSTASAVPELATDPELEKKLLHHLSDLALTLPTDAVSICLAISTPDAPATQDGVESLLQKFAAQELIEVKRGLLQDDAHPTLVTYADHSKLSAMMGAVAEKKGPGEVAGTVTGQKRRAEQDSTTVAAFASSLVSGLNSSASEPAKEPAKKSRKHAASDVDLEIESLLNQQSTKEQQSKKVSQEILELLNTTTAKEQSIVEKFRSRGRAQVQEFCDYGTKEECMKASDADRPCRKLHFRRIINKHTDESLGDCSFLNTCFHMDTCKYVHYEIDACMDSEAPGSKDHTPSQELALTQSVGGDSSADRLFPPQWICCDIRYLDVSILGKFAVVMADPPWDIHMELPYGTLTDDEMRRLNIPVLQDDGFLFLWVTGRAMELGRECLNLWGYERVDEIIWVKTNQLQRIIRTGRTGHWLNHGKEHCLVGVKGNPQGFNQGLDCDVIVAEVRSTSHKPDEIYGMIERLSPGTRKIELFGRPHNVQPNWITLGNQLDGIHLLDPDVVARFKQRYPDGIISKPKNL

B1: HEXIM1 (natural protein)
chain: MAEPFLSEYQHQPQTSNCTGAAAVQEELNPERPPGAEERVPEEDSRWQSRAFPQLGGRPGPEGEGSLESQPPPLQTQACPESSCLREGEKGQNGDDSSAGGDFPPPAEVEPTPEAELLAQPCHDSEASKLGAPAAGGEEEWGQQQRQLGKKKHRRRPSKKKRHWKPYYKLTWEEKKKFDEKQSLRASRIRAEMFAKGQPVAPYNTTQFLMDDHDQEEPDLKTGLYSKRAAAKSDDTSDDDFMEEGGEEDGGSDGMGGDGSEFLQRDFSETYERYHTESLQNMSKQELIKEYLELEKCLSRMEDENNRLRLESKRLGGDDARVRELELELDRLRAENLQLLTENELHRQQERAPLSKFGD
B1 gave a Kd of about 270 nM.
